Data from patent publication US20120219551A1 (MacroGenics, published 2012).
Where a chain is given by its changes, count along the chain named. Numbers in names are those of the source. Each block holds one binder with its values, some of them ahead of it.

How the values were obtained:
[1] = molecular target: T1, FcγRIIIA, soluble monomeric protein (extracellular region joined to the linker-AVITAG sequence) (human, UniProt P08637 17-208); assay: ELISA
T1 construct: extracellular domain; also called FcRIIIA; FcR3A

[2] = molecular target: T1, FcγRIIIA, soluble monomeric protein …; assay: ELISA; remark: listed apart in the source
[3] = molecular target: T2, soluble dimeric FcγRIIB-Fc fusion protein (extracellular domain of FcγRIIB fused to hinge-CH2-CH3 of human … (human, UniProt P31994 43-217)); assay: SPR (BIAcore), Fc mutant in ch4-4-20, off rate relative to wild type
T2 construct: extracellular domain; also called FcRIIB-Fc; 2bfcagl; not shown: human IgG2 hinge-CH2-CH3
T2 sequence (looked up): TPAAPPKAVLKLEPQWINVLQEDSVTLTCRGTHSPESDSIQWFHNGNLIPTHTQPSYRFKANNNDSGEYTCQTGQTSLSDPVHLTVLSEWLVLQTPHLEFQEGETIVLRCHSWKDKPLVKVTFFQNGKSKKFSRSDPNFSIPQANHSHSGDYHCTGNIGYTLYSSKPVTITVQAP

[4] = molecular target: T3, CD16A (158V) (human, UniProt P08637 17-208); assay: off-rate ratio vs wild-type Fc (BIAcore per the filing's koff tables)
T3 construct: extracellular domain; Soluble monomeric construct as told for the ch4D5 BIAcore assays of section 7.7; also called FcγRIIIA 158V; FcγRIIIA V158

[5] = molecular target: T4, CD32B (human, UniProt P31994 43-217); assay: as above
T4 construct: extracellular domain; Soluble dimeric fusion as told for the ch4D5 BIAcore assays of section 7.7; also called FcγRIIB; FcγRII-B; not shown: hinge-CH2-CH3 domain of human IgG2
T4 sequence (looked up): T2 sequence (looked up)

[6] = molecular target: T5, CD32A (131R) (human, UniProt P12318 34-217); assay: as above
T5 construct: extracellular domain; Soluble dimeric fusion as told for FcγRIIA in section 7.7 (there for 131H); also called FcγRIIA 131R; not shown: hinge-CH2-CH3 domain of human IgG2
T5 sequence (looked up): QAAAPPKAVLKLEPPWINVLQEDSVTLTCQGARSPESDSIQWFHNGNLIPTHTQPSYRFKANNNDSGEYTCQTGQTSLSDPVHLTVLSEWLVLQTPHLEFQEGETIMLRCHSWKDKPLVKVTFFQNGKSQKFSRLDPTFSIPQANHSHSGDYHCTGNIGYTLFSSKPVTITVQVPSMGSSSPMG

[7] = molecular target: T6, CD32A (131H) (human, UniProt P12318 34-217); assay: as above
T6 construct: extracellular domain; Soluble dimeric fusion as told for the ch4D5 BIAcore assays of section 7.7; also called FcγRIIA 131H; not shown: hinge-CH2-CH3 domain of human IgG2
T6 sequence (looked up): T5 sequence (looked up) with R134H

[8] = molecular target: T7, CD16A (158F) (human, UniProt P08637 17-208); assay: as above
T7 construct: extracellular domain; Soluble monomeric construct as told for the ch4D5 BIAcore assays of section 7.7

[9] = molecular target: T8, CD16A(V158) (human, UniProt P08637 17-208); assay: relative off-rate wt/variant; method not given (BIAcore elsewhere)
T8 construct: extracellular domain; Construct as told for the BIAcore assays of Section 7.7; also called FcγRIIIA 158V; 3aV158

[10] = molecular target: T9, CD32A-G2Ag (human, UniProt P12318 34-217); assay: as above
T9 construct: extracellular domain; Soluble dimeric protein as told for Section 7.7 (there 131H); also called FcγRIIA-Fc fusion protein; 2aFcagl; not shown: human IgG2 hinge-CH2-CH3 domain
T9 sequence (looked up): T5 sequence (looked up) with R134H

[11] = molecular target: T10, CD16A(F158) (human, UniProt P08637 17-208); assay: as above
T10 construct: extracellular domain; Construct as told for the BIAcore assays of Section 7.7; also called 3aF158

[12] = molecular target: T11, CD32B-G2Ag (human, UniProt P31994 43-217); assay: as above
T11 construct: extracellular domain; Soluble dimeric protein as told for Section 7.7; also called FcγRIIB-Fc fusion protein; 2bFcagl; not shown: human IgG2 hinge-CH2-CH3 domain
T11 sequence (looked up): T2 sequence (looked up)

T7 sequence (P08637 17-208): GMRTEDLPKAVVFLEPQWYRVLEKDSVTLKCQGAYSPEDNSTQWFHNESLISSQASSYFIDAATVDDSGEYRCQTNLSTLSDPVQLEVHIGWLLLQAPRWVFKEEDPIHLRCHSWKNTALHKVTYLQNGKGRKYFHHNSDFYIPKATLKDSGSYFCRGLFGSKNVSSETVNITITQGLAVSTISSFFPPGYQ
T8 sequence (P08637 17-208 F176V): as the sequence (P08637 17-208) above, with F160V counted along it
T1 sequence (P08637 17-208 F176V limits assumed, form in doubt): as the sequence (P08637 17-208) above, with F160V counted along it
T3 sequence (P08637 17-208 F176V): as the sequence (P08637 17-208) above, with F160V counted along it
T10 sequence (P08637 17-208): as the sequence (P08637 17-208) above

- ELISA binding, fold vs WT [1]: 1.5 fold
- fold change vs WT [2]: 1.5 fold
B1: Fc variant K334E, T359N, T366S (antibody)
chain: ASTKGPSVFPLAPSSKSTSGGTAALGCLVKDYFPEPVTVSWNSGALTSGVHTFPAVLQSSGLYSLSSVVTVPSSSLGTQTYICNVNHKPSNTKVDKKVEPKSCDKTHTCPPCPAPELLGGPSVFLFPPKPKDTLMISRTPEVTCVVVDVSHEDPEVKFNWYVDGVEVHNAKTKPREEQYNSTYRVVSVLTVLHQDWLNGKEYKCKVSNKALPAPIEETISKAKGQPREPQVYTLPPSRDELNKNQVSLSCLVKGFYPSDIAVEWESNGQPENNYKTTPPVLDSDGSFFLYSKLTVDKSRWQQGNVFSCSVMHEALHNHYTQKSLSLSPGK

- Koff WT/Mut [3]: 0.62
B2: ch4-4-20 MgFc66 (A330V, V427M) (antibody)
chain 1: not shown
chain 2: DVVMTQTPLSLPVSLGDQASISCRSSQSLVHSNGNTYLRWYLQKPGQSPKVLIYKVSNRFSGVPDRFSGSGSGTDFTLKISRVEAEDLGVYFCSQSTHVPWTFGGGTKLEIKRTVAAPSVFIFPPSDEQLKSGTASVVCLLNNFYPREAKVQWKVDNALQSGNSQESVTEQDSKDSTYSLSSTLTLSKADYEKHKVYACEVTHQGLSSPVTKSFNRGEC

- Wild-Type Koff/Mutant Koff [4]: 6.1
- Wild-Type Koff/Mutant Koff [5]: 0.4
- Wild-Type Koff/Mutant Koff [6]: 0.4
- Wild-Type Koff/Mutant Koff [7]: 1.3
- Wild-Type Koff/Mutant Koff [8]: 4.8
B3: ch4D5-FcMT2 (antibody, human IgG1, kappa)
heavy: QVQLQQSGPELVKPGASLKLSCTASGFNIKDTYIHWVKQRPEQGLEWIGRIYPTNGYTRYDPKFQDKATITADTSSNTAYLQVSRLTSEDTAVYYCSRWGGDGFYAMDYWGQGASVTVSSASTKGPSVFPLAPSSKSTSGGTAALGCLVKDYFPEPVTVSWNSGALTSGVHTFPAVLQSSGLYSLSSVVTVPSSSLGTQTYICNVNHKPSNTKVDKRVEPKSCDKTHTCPPCPAPELVGGPSVFLLPPKPKDTLMISRTPEVTCVVVDVSHEDPEVKFNWYVDGVEVHNAKTKPPEEQYNSTLRVVSVLTVLHQDWLNGKEYKCKVSNKALPAPIEKTISKAKGQPREPQVYTLPPSRDELTKNQVSLTCLVKGFYPSDIAVEWESNGQPENNYKTTPLVLDSDGSFFLYSKLTVDKSRWQQGNVFSCSVMHEALHNHYTQKSLSLSPGK
light: DIVMTQSHKFMSTSVGDRVSITCKASQDVNTAVAWYQQKPGHSPKLLIYSASFRYTGVPDRFTGSRSGTDFTFTISSVQAEDLAVYYCQQHYTTPPTFGGGTKVEIKRTVAAPSVFIFPPSDEQLKSGTASVVCLLNNFYPREAKVQWKVDNALQSGNSQESVTEQDSKDSTYSLSSTLTLSKADYEKHKVYACEVTHQGLSSPVTKSFNRGEC
notes: Anti-Her2/neu; also called ch45D4-FcMT2; L235V F243L R292P Y300L P396L

- Wild-Type Koff/Mutant Koff [5]: 0.2
- Wild-Type Koff/Mutant Koff [6]: 0.2
- Wild-Type Koff/Mutant Koff [7]: 0.7
- Wild-Type Koff/Mutant Koff [8]: 2.5
B4: ch4D5 Fc variant L235P, F243L, R292P, Y300L, P396L (antibody)
heavy: B3 heavy with V238P
light: B3 light
notes: One of the series of variants of ch4D5-FcMT2

- Koff ratio (wt/mut) [9]: 5.3 wt/mut
- Koff ratio (wt/mut) [10]: 1.3 wt/mut
- Koff ratio (wt/mut) [11]: 4.5 wt/mut
- Koff ratio (wt/mut) [12]: 0.5 wt/mut
B5: ch4D5 Fc Variants 19 and 20 (L235V, F243L, R292P, Y300L, P396L) (antibody)
heavy: B3 heavy
light: B3 light
notes: copies: 2 + 2

- Wild-Type Koff/Mutant Koff [4]: 4.2
- Wild-Type Koff/Mutant Koff [5]: 0.3
- Wild-Type Koff/Mutant Koff [6]: 0.3
- Wild-Type Koff/Mutant Koff [7]: 0.9
- Wild-Type Koff/Mutant Koff [8]: 2.8
B6: ch4D5 Fc variant L235T, F243L, R292P, Y300L, P396L (antibody)
heavy: B3 heavy with V238T
light: B3 light
notes: as for B4

- Koff ratio (wt/mut) [9]: 10.1 wt/mut
- Koff ratio (wt/mut) [10]: 1.4 wt/mut
- Koff ratio (wt/mut) [11]: 8.3 wt/mut
- Koff ratio (wt/mut) [12]: 3.2 wt/mut
B7: Antibody 2B6 3.5 Fc Variant 49 (F243L, R292P, Y300L, V305I, P396L) (antibody)
heavy: QVQLVQSGAEVKKPGASVKVSCKASGYTFTNYWIHWVRQAPGQGLEWIGVIDPSDTYPNYNKKFKGRVTMTVDTSTSTAYMELRSLRSDDTAVYYCARNGDSDYYSGMDYWGQGTTVTVSSASTKGPSVFPLAPSSKSTSGGTAALGCLVKDYFPEPVTVSWNSGALTSGVHTFPAVLQSSGLYSLSSVVTVPSSSLGTQTYICNVNHKPSNTKVDKRVEPKSCDKTHTCPPCPAPELLGGPSVFLLPPKPKDTLMISRTPEVTCVVVDVSHEDPEVKFNWYVDGVEVHNAKTKPPEEQYNSTLRVVSILTVLHQDWLNGKEYKCKVSNKALPAPIEKTISKAKGQPREPQVYTLPPSRDELTKNQVSLTCLVKGFYPSDIAVEWESNGQPENNYKTTPLVLDSDGSFFLYSKLTVDKSRWQQGNVFSCSVMHEALHNHYTQKSLSLSPGK
light: EIVLTQSPDFQSVTPKEKVTFTCRTSQSIGTNIHWYQQKPDQSPKLLIKEVSESISGVPSRFSGSGSGTDFTLTINSLEAEDAATYYCQQSNTWPFTFGGGTKVEIKRTVAAPSVFIFPPSDEQLKSGTASVVCLLNNFYPREAKVQWKVDNALQSGNSQESVTEQDSKDSTYSLSSTLTLSKADYEKHKVYACEVTHQGLSSPVTKSFNRGEC
notes: Fc variant of m46; also called h2B6 3.5 0088; copies: 2 + 2
